{"source": "patent US8759300", "binders": {"B1": {"name": "peptide 1A (FN634-648) … (peptide)", "peptide": "QPSHISKYILRWRPK"}, "B2": {"name": "peptide 1 (FN634-658) … (peptide)", "peptide": "QPSHISKYILRWRPKNSVGRWKEAT"}, "B3": {"name": "peptide 2 (FN680-704) … (peptide)", "peptide": "QLISIQQYGHQEVTRFDFTTTSTST"}, "B4": {"name": "FN630-648 … (peptide)", "peptide": "WNAPQPSHISKYILRWRPK"}, "B5": {"name": "peptide 4 (FN2043-2067) … (peptide)", "peptide": "QPSVGQQMIFEEHGFRRTTPPTTAT"}, "B6": {"name": "peptide 1B … (peptide)", "peptide": "ILRWRPKNSVGRWK"}, "B7": {"name": "peptide 3 … (peptide)", "peptide": "NGQTPIQRTIKPDVRSYTITGLQPGT"}}, "data": [{"target": "platelet-derived growth factor-BB (PDGF-BB) (human) (UniProt P01127)", "sequence (P01127 82-190 limits assumed)": "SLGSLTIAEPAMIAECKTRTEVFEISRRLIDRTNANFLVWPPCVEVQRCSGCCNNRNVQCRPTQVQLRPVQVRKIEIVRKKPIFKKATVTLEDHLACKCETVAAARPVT", "assay": "method not restated (same value as FN634-648 in paragraph 247)", "units": {"Kd": "nM"}, "values": [{"binder": "B1", "Kd": 450}]}, {"target": "platelet-derived growth factor-BB (PDGF-BB) (human) (UniProt P01127)", "assay": "peptide binding to PDGF-BB", "units": {"Kd": "nM"}, "values": [{"binder": "B2", "Kd": 250}, {"binder": "B3", "Kd": 110}, {"binder": "B1", "Kd": 450}, {"binder": "B4", "Kd": 340}]}, {"target": "transforming growth factor-β1 (TGF-β1) (human) (UniProt P01137)", "sequence (P01137 279-390 limits assumed)": "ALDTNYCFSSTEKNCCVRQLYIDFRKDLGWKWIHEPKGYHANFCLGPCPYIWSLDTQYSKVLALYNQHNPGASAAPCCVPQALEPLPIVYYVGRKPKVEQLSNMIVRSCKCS", "assay": "equilibrium binding", "units": {"Kd": "nM"}, "values": [{"binder": "B2", "Kd": 130}, {"binder": "B3", "Kd": 270}, {"binder": "B5", "Kd": 100}, {"binder": "B6", "Kd": 400}, {"binder": "B1", "Kd": 440}, {"binder": "B7", "Kd": 140}]}, {"target": "platelet-derived growth factor-BB (PDGF-BB) (human) (UniProt P01127)", "assay": "equilibrium binding", "units": {"Kd": "nM"}, "values": [{"binder": "B2", "Kd": 250}]}]}
